Experimental data: US20040259795A1

Experiments:
[1] = target: soluble recombinant bovine CD14 (rBo-LAIT) (bovine) (UniProt Q95122); assay: cell-based or functional assay
[2] = target: soluble recombinant human CD14 (rHu-LAIT) (human) (UniProt P08571); assay: cell-based or functional assay
Chain of UniProt P08571 (P08571 20-345 C187Y limits assumed): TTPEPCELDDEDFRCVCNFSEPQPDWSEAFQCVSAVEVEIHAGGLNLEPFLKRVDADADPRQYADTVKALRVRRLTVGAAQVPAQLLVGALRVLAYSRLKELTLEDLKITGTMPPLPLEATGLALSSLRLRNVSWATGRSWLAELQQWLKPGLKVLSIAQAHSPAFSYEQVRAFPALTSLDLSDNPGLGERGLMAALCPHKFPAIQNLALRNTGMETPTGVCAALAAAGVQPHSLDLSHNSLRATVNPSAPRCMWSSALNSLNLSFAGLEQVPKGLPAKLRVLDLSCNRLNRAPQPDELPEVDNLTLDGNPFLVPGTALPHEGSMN

Chain of UniProt Q95122 (Q95122 21-373 S209T limits assumed): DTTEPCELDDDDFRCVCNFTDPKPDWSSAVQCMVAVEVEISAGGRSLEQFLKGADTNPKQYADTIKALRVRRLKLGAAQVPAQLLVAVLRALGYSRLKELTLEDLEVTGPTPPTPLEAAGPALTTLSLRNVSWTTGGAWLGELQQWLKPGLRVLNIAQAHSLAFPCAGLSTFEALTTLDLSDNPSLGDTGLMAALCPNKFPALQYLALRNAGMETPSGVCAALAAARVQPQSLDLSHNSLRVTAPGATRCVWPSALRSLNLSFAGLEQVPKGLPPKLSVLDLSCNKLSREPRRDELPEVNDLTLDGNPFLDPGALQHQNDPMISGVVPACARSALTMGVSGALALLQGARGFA

IgG2b isotype non-specific mAb OX40 (antibody)
< 15%: inhibition of B cell activation (3H-TdR uptake, percent of response without mAb) [1] | inhibition of induction of mIg+ 70Z/3 cells (flow cytometry) [1] | inhibition of B cell activation (3H-TdR uptake, percent of response without mAb) [2]
